These are literature values, as cited in paper PMC3604136.

In general, Kd refers to the free concentration of one partner at which half of the binding sites on the other are occupied at equilibrium, for simple one-to-one binding.

In this series the target is ARNT PAS-B (Homo sapiens) (UniProt P27540).
Chain of ARNT PAS-B (Homo sapiens) (P27540 356-470): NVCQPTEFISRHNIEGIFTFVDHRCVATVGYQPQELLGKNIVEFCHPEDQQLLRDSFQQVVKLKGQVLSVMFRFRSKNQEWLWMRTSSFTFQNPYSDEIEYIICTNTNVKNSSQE

Chain of HIF-2α PAS-B (Q99814 239-350): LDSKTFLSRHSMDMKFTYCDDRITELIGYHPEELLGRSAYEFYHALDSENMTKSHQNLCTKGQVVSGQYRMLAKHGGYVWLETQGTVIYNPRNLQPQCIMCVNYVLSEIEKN

Consider HIF-2α PAS-B (from UniProt Q99814), for which the Kd was 100 µM.
